Data as given in paper PMC8351545 (Molecular Biology of the Cell, 2021).

What was measured:
[1] = target: recombinant phosphomimetic CENP-T/W complex (T11D, T27D, T85D) (human) (UniProt Q96BT3); test: pull-down
[2] = target: recombinant full-length wild-type CENP-T/W complex (human, UniProt Q96BT3 1-561; Q5EE01 1-88); test: pull-down
recombinant full-length wild-type CENP-T/W complex, sequence (Q96BT3 whole entry, chain 1 of 2): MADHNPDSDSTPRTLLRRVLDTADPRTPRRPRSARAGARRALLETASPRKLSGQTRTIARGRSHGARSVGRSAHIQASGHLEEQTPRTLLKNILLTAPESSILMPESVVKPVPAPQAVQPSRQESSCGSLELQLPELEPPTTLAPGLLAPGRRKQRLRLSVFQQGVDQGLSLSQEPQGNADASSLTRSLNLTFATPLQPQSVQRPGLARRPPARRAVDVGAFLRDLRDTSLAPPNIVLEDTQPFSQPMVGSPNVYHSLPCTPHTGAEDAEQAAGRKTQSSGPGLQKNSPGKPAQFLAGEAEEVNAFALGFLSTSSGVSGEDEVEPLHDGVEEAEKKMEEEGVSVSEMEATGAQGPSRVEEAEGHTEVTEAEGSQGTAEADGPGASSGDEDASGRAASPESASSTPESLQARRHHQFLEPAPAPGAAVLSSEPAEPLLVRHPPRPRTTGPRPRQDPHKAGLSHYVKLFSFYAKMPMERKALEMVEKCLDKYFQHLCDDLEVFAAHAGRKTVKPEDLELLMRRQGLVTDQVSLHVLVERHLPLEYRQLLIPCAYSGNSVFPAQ
recombinant full-length wild-type CENP-T/W complex, sequence (Q5EE01 whole entry, chain 2 of 2): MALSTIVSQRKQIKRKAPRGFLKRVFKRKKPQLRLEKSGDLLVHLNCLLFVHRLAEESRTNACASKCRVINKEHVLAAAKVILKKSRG

recombinant phosphomimetic CENP-T/W complex (T11D, T27D, T85D) (human), sequence (Q96BT3 whole entry T11D/T27D/T85D, chain 1 of 2): as the sequence (Q96BT3 whole entry, chain 1 of 2) above, with T11D, T27D, T85D counted along it
recombinant phosphomimetic CENP-T/W complex (T11D, T27D, T85D) (human), sequence (Q5EE01 whole entry, chain 2 of 2, further chain): as the sequence (Q5EE01 whole entry, chain 2 of 2) above

fold weaker recruitment than the Ndc80 proteins with shortened stalk [1] | binding result [2] | Molecule
5 times weaker | – | recombinant full-length GFP-fused human Ndc80 complex (from UniProt O14777 1-642; Q9BZD4 1-464; Q8NBT2 1-197; Q9HBM1 1-224)
– | binds | human Bonsai Ndc80 complex (Bonsai Ndc80-GFP) (complex) chain 1: MKRSSVSSGGAGRLSMQELRSQDVNKQGLYTPQTKEKPTFGKLSINKPTSERKVSLFGKRTSGHGSRNSQLGIFSSSEKIKDPRPLNDKAFIQQCIRQLCEFLTENGYAHNVSMKSLQAPSVKDFLKIFTFLYGFLCPSYELPDTKFEEEVPRIFKDLGYPFALSKSSMYTVGAPHTWPHIVAALVWLIDCIKIHTAMKESSPLFDDGQPWGEETEDGIMHNKLFLDYTIKCYESFMSGADSFDEMNAELQSKLKDLFNVDAFKLESLEAKNRALNEQIARLEQERSTANKANAERLKRLQKSADLYKDRLGLEIRKIYGEKLQFIFTNIDPKNPESPFMFSLHLNEARDYEVSDSAPHLEGLAEFQENVRKTNNFSAFLANVRKAFTATVYN chain 2: METLSFPRYNVAEIVIHIRNKILTGADGKNLTKNDLYPNPKPEVLHMIYMRALQIVYGIRLEHFYMMPVNSEVMYPHLMEGFLPFSNLVTHLDSFLPICRVNDFETADILCPKAKRTSRFLSGIINFIHFREACRETYMEFLWQYKSSADKMQQLNAAHQEALMKLERLEKEVDEDTTVTIPSAVYVAQLYHQVSKIEWDYECEPGMVKGIHHGPSVAQPIHLDSTQLSRKFISDYLWSLVDTEW
